Measurements: patent US20100120171A1

What was measured:
[1] = target: recombinant fragment of human VE-cadherin extracellular region, CAD 1-4 fragment (Asp48-Glu478, preceded by Met), SEQ ID NO: 4 (human) (UniProt P33151); experiment: sandwich ELISA, BV9 capture, rabbit polyclonal detection; CAD1-4 at 0.63 ng/mL
[2] = target: recombinant fragment of human VE-cadherin extracellular region, CAD 1-4 fragment (Asp48-Glu478, preceded by Met), SEQ ID NO: 4 (human) (UniProt P33151); experiment: sandwich ELISA, BV9 capture, rabbit polyclonal detection; CAD1-4 at 5 ng/mL; first replicate
[3] = target: recombinant fragment of human VE-cadherin extracellular region, CAD 1-4 fragment (Asp48-Glu478, preceded by Met), SEQ ID NO: 4 (human) (UniProt P33151); experiment: sandwich ELISA, BV9 capture, rabbit polyclonal detection; CAD1-4 at 1.25 ng/mL; second replicate
[4] = target: recombinant fragment of human VE-cadherin extracellular region, CAD 1-4 fragment (Asp48-Glu478, preceded by Met), SEQ ID NO: 4 (human) (UniProt P33151); experiment: sandwich ELISA, BV9 capture, rabbit polyclonal detection; CAD1-4 at 2.5 ng/mL; mean OD minus OD at 0 ng/mL
[5] = target: recombinant fragment of human VE-cadherin extracellular region, CAD 1-4 fragment (Asp48-Glu478, preceded by Met), SEQ ID NO: 4 (human) (UniProt P33151); experiment: sandwich ELISA, BV9 capture, rabbit polyclonal detection; CAD1-4 at 0.63 ng/mL; first replicate
[6] = target: recombinant fragment of human VE-cadherin extracellular region, CAD 1-4 fragment (Asp48-Glu478, preceded by Met), SEQ ID NO: 4 (human) (UniProt P33151); experiment: sandwich ELISA, BV9 capture, rabbit polyclonal detection; CAD1-4 at 5 ng/mL; second replicate
[7] = target: recombinant fragment of human VE-cadherin extracellular region, CAD 1-4 fragment (Asp48-Glu478, preceded by Met), SEQ ID NO: 4 (human) (UniProt P33151); experiment: sandwich ELISA, BV9 capture, rabbit polyclonal detection; CAD1-4 at 2.5 ng/mL; mean OD minus OD at 0 ng/mL; remark: listed apart in the source
[8] = target: recombinant fragment of human VE-cadherin extracellular region, CAD 1-4 fragment (Asp48-Glu478, preceded by Met), SEQ ID NO: 4 (human) (UniProt P33151); experiment: sandwich ELISA, BV9 capture, rabbit polyclonal detection; CAD1-4 at 1.25 ng/mL; first replicate
[9] = target: recombinant fragment of human VE-cadherin extracellular region, CAD 1-4 fragment (Asp48-Glu478, preceded by Met), SEQ ID NO: 4 (human) (UniProt P33151); experiment: sandwich ELISA, BV9 capture, rabbit polyclonal detection; CAD1-4 at 0.63 ng/mL; mean OD minus OD at 0 ng/mL
[10] = target: recombinant fragment of human VE-cadherin extracellular region, CAD 1-4 fragment (Asp48-Glu478, preceded by Met), SEQ ID NO: 4 (human) (UniProt P33151); experiment: sandwich ELISA, BV9 capture, rabbit polyclonal detection; CAD1-4 at 1.25 ng/mL; mean OD minus OD at 0 ng/mL
[11] = target: recombinant fragment of human VE-cadherin extracellular region, CAD 1-4 fragment (Asp48-Glu478, preceded by Met), SEQ ID NO: 4 (human) (UniProt P33151); experiment: sandwich ELISA, BV9 capture, rabbit polyclonal detection; CAD1-4 at 2.5 ng/mL
[12] = target: recombinant fragment of human VE-cadherin extracellular region, CAD 1-4 fragment (Asp48-Glu478, preceded by Met), SEQ ID NO: 4 (human) (UniProt P33151); experiment: sandwich ELISA, BV9 capture, rabbit polyclonal detection; CAD1-4 at 5 ng/mL

Sequence of UniProt P33151 (P33151 other isoform, or with tags, fused parts or gaps limits assumed): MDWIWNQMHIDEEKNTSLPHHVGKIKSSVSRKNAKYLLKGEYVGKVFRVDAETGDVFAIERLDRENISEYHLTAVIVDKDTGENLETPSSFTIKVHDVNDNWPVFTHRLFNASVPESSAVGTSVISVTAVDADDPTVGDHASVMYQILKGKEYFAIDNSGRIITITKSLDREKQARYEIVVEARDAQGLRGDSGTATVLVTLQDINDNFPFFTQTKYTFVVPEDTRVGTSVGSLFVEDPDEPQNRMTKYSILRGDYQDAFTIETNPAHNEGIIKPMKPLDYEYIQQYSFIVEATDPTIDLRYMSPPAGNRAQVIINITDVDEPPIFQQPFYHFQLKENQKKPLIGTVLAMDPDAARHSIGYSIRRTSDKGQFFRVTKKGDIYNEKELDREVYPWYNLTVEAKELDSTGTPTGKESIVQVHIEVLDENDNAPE

OD1 [1]: 0.794 OD | OD2 [1]: 0.789 OD | mean OD [1]: 0.792 OD | OD [2]: 1.34 OD | OD [3]: 0.932 OD | Corr. OD [4]: 0.288 OD | OD [5]: 0.975 OD | OD [6]: 1.45 OD | Corr. OD [7]: 0.282 OD | OD [8]: 1.07 OD | Corr. OD [9]: 0.051 OD | Corr. OD [10]: 0.116 OD | OD1 [11]: 0.988 OD | OD2 [11]: 0.985 OD | mean OD [11]: 0.987 OD | OD1 [12]: 1.31 OD | OD2 [12]: 1.21 OD | mean OD [12]: 1.26 OD
Substance: anti-VEcadherin mouse mAb, clone BV9 (Abcam, product datasheet ab7047) (antibody)
